Reference: article doi:10.1101/2022.08.03.502606
Read-outs that look alike come from different tables or passages of the source.

Assays:
[1] = biological target: CaMKII^K42RD135N-AviTag (kinase-dead CaMKII, K42R and D135N double mutant, C-terminal AviTag) (human) (UniProt Q9UQM7); experiment: mass photometry
[2] = biological target: CaMKII^K42RD135N-AviTag (kinase-dead CaMKII, K42R and D135N double mutant, C-terminal AviTag) (human) (UniProt Q9UQM7); experiment: mass photometry; remark: listed apart in the source
[3] = biological target: CaMKII^K42RD135N-AviTag (kinase-dead CaMKII, K42R and D135N double mutant, C-terminal AviTag) (human) (UniProt Q9UQM7)
[4] = biological target: CaMKII^F394BzF (human) (UniProt Q9UQM7)

stoichiometry N [1] | percent in the tetramer peak [2] | stoichiometry N [2] | stoichiometry N [3] | stoichiometry N [4] | Substance
10 | 12% | 4 | 12 | – | CaMKII^K42RD135N-AviTag (kinase-dead CaMKII, K42R and D135N double mutant, C-terminal AviTag) (from UniProt Q9UQM7 6-478) (enzyme)
– | – | – | – | 12 | CaMKII^F394BzF (from UniProt Q9UQM7 6-478) (enzyme)
